One experiment deals with GST-ACK GBD G468A (UniProt Q07912). Briefly: scintillation proximity assay (direct binding); 20 nM GST-ACK variant immobilised on protein A SPA fluoromicrospheres via an anti-GST antibody; varying concentrations of [3H]GTP-Cdc42; background without effector subtracted; apparent Kd from a direct binding isotherm. On the technique in general: SPA uses beads or plates that emit light when radiolabelled molecules are held near them.

Experiment [1] concerns the target GST-ACK GBD wild type, ACK(448-489) (UniProt Q07912). The experiment is described as above.
Another experiment concerns the target GST-ACK GBD P457A (UniProt Q07912). The experiment is described as above.
In a further experiment the target is GST-ACK GBD Q459A (UniProt Q07912). The experiment is described as above.
Another experiment deals with GST-ACK GBD A451D (UniProt Q07912). The description is as above.
A further experiment has as its target GST-ACK GBD S450A (UniProt Q07912). Described as above.
A further experiment addresses GST-ACK GBD H464A (UniProt Q07912). Described as above.
The next experiment has as its target GST-ACK GBD S470A (UniProt Q07912). The experiment is described as above.
The next experiment concerns the target GST-ACK GBD F462A (UniProt Q07912). The description is as above.
Another experiment has as its target GST-ACK GBD D469A (UniProt Q07912). The experiment is described as above.
A further experiment addresses GST-ACK GBD Δ17 (UniProt Q07912). The description is as above.
The target in another experiment is GST-ACK GBD H467A (UniProt Q07912). Described as above.
In another experiment the target is GST-ACK GBD D480A (UniProt Q07912). The description is as above.
Another experiment addresses GST-ACK GBD W476A (UniProt Q07912). Described as above.
Another experiment has as its target GST-ACK GBD L487A (UniProt Q07912). The experiment is described as above.
The target of another experiment is GST-ACK GBD R481A (UniProt Q07912). The experiment is described as above.
For another experiment, the target named is GST-ACK GBD I463A (UniProt Q07912). The experiment is described as above.
The next experiment deals with GST-ACK GBD S455A (UniProt Q07912). The description is as above.
The target of a further experiment is GST-ACK GBD Q452A (UniProt Q07912). The description is as above.
In the next experiment the target is GST-ACK GBD T465A (UniProt Q07912). The experiment is described as above.
In another experiment the target is GST-ACK GBD L485A (UniProt Q07912). The description is as above.
Another experiment concerns the target GST-ACK GBD L449A (UniProt Q07912). Described as above.
The target in the next experiment is GST-ACK GBD S461A (UniProt Q07912). Described as above.
In another experiment the target is GST-ACK GBD H464A/H467A (UniProt Q07912). The description is as above.
The target of experiment [2] is GST-ACK GBD wild type, ACK(448-489) (UniProt Q07912). Description: BLI; Octet Red; GST fusion proteins (10 μg/ml) loaded on anti-GST sensors, dipped into a dilution range of Cdc42·GMPPNP; 50 mM Tris–HCl pH 7.5, 150 mM NaCl, 1 mM MgCl2, 0.02% Tween 20, 0.1% BSA, 0.05% sodium azide, 25 °C; GST-alone sensors subtracted. (BLI is a label-free optical method that tracks binding on a fibre tip over time.)

The target in experiment [3] is GST-WASP (Wiskott–Aldrich syndrome protein) fusion construct. Described as above.
The target of experiment [4] is GST-WASP ΔBR (basic region mutant of WASP). The description is as above.
Another experiment addresses Cdc42 Δ7 Q61L (UniProt P60953). Description: scintillation proximity assay (competition); 30 nM GST-WT ACK GBD immobilised on protein A SPA fluoromicrospheres via an anti-GST antibody, 30 nM [3H]GTP-Cdc42; increasing concentrations of GST-cleaved ACK variant; pure competition model, apparent Kd (Ki).

Regarding “Cdc42 Δ7 Q61L (from UniProt P60953 1-191) (natural protein)”, the Kd in the experiment with GST-ACK GBD G468A stood at 67.3 nM; in [1], 44.2 nM; in the experiment with GST-ACK GBD Q459A it was 29.8 nM; in the experiment with GST-ACK GBD A451D, 189 nM; in the experiment with GST-ACK GBD S450A it was 167 nM; in the experiment with GST-ACK GBD S470A it was 35.4 nM. The Kd in the experiment with GST-ACK GBD D469A was determined as 38 nM; in the experiment with GST-ACK GBD D480A, 164 nM; with GST-ACK GBD W476A, 137 nM; with GST-ACK GBD L487A it was 330 nM; with GST-ACK GBD R481A, 107 nM; with GST-ACK GBD I463A, 152 nM. Further, the Kd with GST-ACK GBD S455A came to 243 nM; with GST-ACK GBD Q452A it was 44 nM; with GST-ACK GBD T465A, 85.4 nM; in the experiment with GST-ACK GBD L485A it was 31.4 nM; with GST-ACK GBD L449A, 492 nM; in experiment [2] it was 130 nM. Besides, the Kd in experiment [3] turned out to be 30 nM; in experiment [4] it was 220 nM. Also, the fold increase in Kd over WT with GST-ACK GBD P457A, with GST-ACK GBD H464A, in the experiment with GST-ACK GBD F462A, in the experiment with GST-ACK GBD Δ17, with GST-ACK GBD H467A and with GST-ACK GBD S461A was > 22.6 -fold throughout. For the same molecule, in the experiment with GST-ACK GBD H464A/H467A, the fold increase in Kd over WT is > 22.6 -fold. The association rate constant (kon) – broadly, the second-order rate constant of association – in [2] turned out to be 224000 M⁻¹ s⁻¹; in experiment [3] it was 793000 M⁻¹ s⁻¹; in experiment [4], 360000 M⁻¹ s⁻¹.
Regarding GLSAQDISQPLQNSFIHTGHGDSDP (domain or fragment) [ACK GBD Δ17, cleaved from GST], in the experiment with Cdc42 Δ7 Q61L, the Kd came to 4760 nM.
In the case of GLSAQDISQPLQNSFIHTGHGDSDPRHCWGFPDRIDELYLGN (domain or fragment) [ACK GBD wild type, ACK(448-489), cleaved from GST], the Kd in the experiment with Cdc42 Δ7 Q61L amounted to 20 nM.
On to GLSAQDISQALQNSFIHTGHGDSDPRHCWGFPDRIDELYLGN (domain or fragment) [ACK GBD P457A, cleaved from GST], for which the Kd with Cdc42 Δ7 Q61L worked out at 3830 nM.
On to GLSAQDISQPLQNSAIHTGHGDSDPRHCWGFPDRIDELYLGN (domain or fragment) [ACK GBD F462A, cleaved from GST], for which the Kd with Cdc42 Δ7 Q61L stood at 3460 nM.
As for GLSAQDISQPLQNAFIHTGHGDSDPRHCWGFPDRIDELYLGN (domain or fragment) [ACK GBD S461A, cleaved from GST], the Kd with Cdc42 Δ7 Q61L was 4160 nM.
On to GLSAQDISQPLQNSFIATGHGDSDPRHCWGFPDRIDELYLGN (domain or fragment) [ACK GBD H464A, cleaved from GST], for which, in the experiment with Cdc42 Δ7 Q61L, the Kd was found to be 2510 nM.
As to GLSAQDASQPLQNSFIHTGHGDSDPRHCWGFPDRIDELYLGN (domain or fragment) [ACK GBD I454A, cleaved from GST], the Kd with Cdc42 Δ7 Q61L worked out at 19700 nM.
On the same count and under the same terms, under GLSAQDISQPLQNSFIHTGAGDSDPRHCWGFPDRIDELYLGN (domain or fragment) [ACK GBD H467A, cleaved from GST] stands 1790 nM; under GLSAQDIAQPLQNSFIHTGHGDSDPRHCWGFPDRIDELYLGN (domain or fragment) [ACK GBD S455A, cleaved from GST], 750 nM.

Values taken from paper PMC5500802.
